± gives the uncertainty stated by the source.

The nature of this series: amyloid nucleation score (Sup35N fusion, yeast selection) (log enrichment); library NNK1; higher = more nucleation; inactive = no reads after selection. The method, boiled down: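 The nucleation score is the log enrichment of output over input reads, calculated with DiMSum and centred on the mode score of non-aggregating sequences. Sequences with under 100 input reads were excluded. Reads came from Illumina sequencing of plasmid inserts from psi-negative yeast expressing Sup35N fused to peptides of 20 random codons, induced 24 hours with 100 μM copper sulfate and grown 7 days at 30°C without adenine and uracil.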
The substance IVSMRL returned an amyloid nucleation score of 0.216 ± 1.4.
With VVSVMLAFYTKDSFVVWLNL the figure was 1.02 ± 0.15.
The value for VSVGR was -0.153 ± 1.4; that for ININGNVY was 0.849 ± 1.1; that for LGPNFGTKFNMGCY was -0.304 ± 0.24.
With QLRHLHSNVLLRDIWLGFKF the figure was -1.01 ± 1.7; with LGTLNAGHTRDVDGAMGYVW, 0.252 ± 1.1; with RLWIVPLGLWCLRHRVCCRP, -0.246 ± 0.65.
In turn, VYRTNLSINSTFIWTHELRS registered an amyloid nucleation score of 0.525 ± 0.18.
As for VMLTPRDLGLVPIGLDHVRG, the amyloid nucleation score was -0.236 ± 0.38.
For SSLQPLIFMRSIHLIVW, the amyloid nucleation score came to 0.265 ± 0.75.
The value for RRRCSSVGRDLMAGSDKRYE was 0.663 ± 0.24; that for GSTSCK was 0.79 ± 0.43; that for VAKAPSNSCTLCHDWYGRST was 0.101 ± 1.4.
For HCLSNCSSRVGGFSFNAPVA, the amyloid nucleation score is 0.5 ± 0.45.
The substance SLYVKWSQILLPLVLYVWYY registered an amyloid nucleation score of 0.232 ± 0.45.
In the case of VQAKYNSSLGESNRDSDCAS, the amyloid nucleation score was found to be 0.187 ± 0.34.
With QDAIMFGSDPLFYILLGLWG the entry was “inactive”.
The value for MVDMILLGRNFINKRMLCLG was 0.019 ± 0.64; that for ESQSRGLMIVNGDFKD was 0.018 ± 0.37.
Take MINVYK: the amyloid nucleation score was found to be 4.33 ± 0.073.
The value for KGKTVVSEDGEQCHLGCSRT was -0.079 ± 0.33; that for YFQFRDGIFIFYVTF was 0.415 ± 0.64; that for YGNYGCLGRWNSLHTCSQIC was -0.913 ± 0.67.
DYLLCLILAKVWDDSNGSWV yielded an amyloid nucleation score of 1.52 ± 0.5.
The value for NCSDQALDLQGSMSVQKIFR was -0.533 ± 0.88.
The value for KWDKVALYFDQVQITELCIY was 4.21 ± 0.091; that for STNIGWAMINLKRYPVLRDA was -0.18 ± 0.29; that for NIRKPNLNTMTDRLDWSVQS was -0.102 ± 0.47.
With SVWCGSWVYNTLRLNMGTNL the figure was 3.01 ± 0.15.
In turn, NWGCFQYSGTGNRLGTNAPV had an amyloid nucleation score of -0.999 ± 0.68.
With PLFLYRFCKMVPVCILRIGW the figure was 0.415 ± 0.3; with TSTSIGRVQCLYDSWRRTAW, 0.73 ± 0.62; with WSSTRPCFLFQLRMAMLLCS, 0.154 ± 0.59.
The value for RLSSSIYAFSDIHCGMSEAQ was 0.168 ± 0.26; that for FIQCVFHVCLRV was 4.68 ± 0.073; that for GSRSHRSH was 0.751 ± 0.67.
The value for GPRAN was -1.55 ± 2.7; that for NYLTHG was 0.311 ± 0.37.
Take VLWHGLVVRSGNVEIVRSMC: the amyloid nucleation score was -0.175 ± 0.96.
HRSCCNKRRRERNFSDWTGV showed an amyloid nucleation score of 0.542 ± 0.77.
The value for SYMFWIPLATQWKRVLNRVW was -0.479 ± 0.54; that for VGSCCNQ was 7.591 ± 0.046; that for RHMRSHENVGKFWRLSCFVN was -0.36 ± 0.51.
With RWPTRNFQGTVRYAR the figure was -0.62 ± 0.7; with RVLSVIVNILIARFT, -0.028 ± 0.25; with CSGLNVSLSRRQVVVLSV, -0.632 ± 0.33.
Regarding NMRTNNVGVGLPSFMHNSSF, the amyloid nucleation score entry was “inactive”.
With LMLERFRLLYNEDFGGKVMF the figure was 0.448 ± 0.47.
LHSIDVDIDVEFLSTHRDGP: the amyloid nucleation score result was “inactive”.
With MTLRLS the figure was 0.375 ± 0.41.
Turning to QIIWVIRFLLVCVFTLSKLV, the amyloid nucleation score entry was “inactive”.
The value for CRTCRNQRMKDKSELSWLMS was -0.589 ± 0.6; that for LTVVTAAFRATMVEHIL was -0.368 ± 0.4; that for VSLVAGTWFYFWHNALVTYH was -0.067 ± 0.36.
With VCVLFELMSKVKGQKARKDQ the figure was 0.425 ± 1.1; with KLREFAVLTLESGSFSVYCW, -1.14 ± 1.2; with FYRFLQPMS, -0.809 ± 0.88.
In turn, SNEVYWQ registered an amyloid nucleation score of 1.25 ± 0.3.
With ISAVGKYESDTVGPSKND the figure was 0.507 ± 1.
The substance HVSAWWLTSNV had an amyloid nucleation score of -0.205 ± 0.37.
The value for SKYGAYGRMVSSNLDT was -0.204 ± 0.84; that for SLLCCVLVFSFCFSPFRSSE was 1.52 ± 0.16; that for FTRTLMLMIRACCWHRFQLT was 0.008 ± 0.91.
The value for LALVDAHK was -1.02 ± 1; that for RDSLSSVSA was -0.382 ± 0.62.
With MLWSKKGTGNYRYCRTGYTG the figure was 0.322 ± 0.49.
With CAVQQYRNRRGNM, the amyloid nucleation score is 0.152 ± 0.65.
The value for MRCISYIYEHAL was 0.567 ± 0.66.
With QDVKSMCQPFMILMVVSGGL the figure was -0.101 ± 0.65; with YLVFMQEITLTKQLLWQSMR, -0.224 ± 0.39; with LSNYYHDGILVIMRSATNDH, 1.61 ± 0.41.
With YTSIGI the figure was -0.144 ± 0.45.
Turning to VRKYRRWSRMIWGCYNNFVF, the amyloid nucleation score was -1.44 ± 0.53.
The value for LWLRSLIVYYNSFVDMGGCA was 0.549 ± 0.3.
With RYPSLLWIFDFNYLLYLRFQ the figure was -0.451 ± 0.25; with WQLTGISIWARFMFYVWQGK, -1.34 ± 0.92; with LTSTDISMGRCAVHQSYLFK, 2.69 ± 0.29.
TTLIILDTYLNMIVVGTLYW returned an amyloid nucleation score of 0.11 ± 0.22.
With SDAMSTHQRVNRF the figure was 0.369 ± 0.55; with PFVDFVVSRNYLRL, 0.572 ± 0.61; with RAKTWDGRGAKQP, 1.22 ± 0.64.
The value for VRGSVLCHRSLHETKNFL was 0.279 ± 0.38.
With SEGMYSRMAIEWLSGE the figure was 1.21 ± 0.69.
As to YKKGYWSGDVAFVWWFTYMC, the amyloid nucleation score worked out at 0.959 ± 0.54.
With MWWAHDGFRSCLRHISHADG the figure was 0.349 ± 0.91; with DWWLPGMLMNRGGLQIVVLV, -0.84 ± 1.1.
The value for VHTINRTQLYNIH was -0.215 ± 0.65; that for CRIQFSSVRMDDSCAQGRKD was 0.504 ± 0.67; that for MYLVDASMSKPLIVLKSCN was 0.686 ± 1.1.
With ASSVHPRYFLNMTSSGVRKS the entry was “inactive”; with GVDRVQCVFLSRVEWLGTPG, 0.198 ± 0.67; with GMWSTNANTPILVILRGVVM, 0.71 ± 1.1.
RRMGKSFKAYTDGVQRKILS yielded an amyloid nucleation score of 0.593 ± 0.68.
As for TLSGVYTFCMFLVWVDSASG, the amyloid nucleation score is 0.843 ± 0.62.
Consider REPVCICLIAAYGRAKPPTG, for which the amyloid nucleation score was 0.382 ± 0.84.
The value for FKTTDHFVGVYCLLYAKKQG was -0.235 ± 0.77; that for AICWPVILSTDLTQTYLAWT was -0.247 ± 0.3.
In turn, HEKVV yielded an amyloid nucleation score of 0.292 ± 0.32.
With AYFIYVMYG the figure was -1.11 ± 1.1; with LVTMLLNKYIVNRSHDGVRI, 0.966 ± 0.49; with YSADMFRADGLWFRGSRWG, 0.308 ± 0.57.
Substance RRHTLSFVTGFCVIGFYGGD showed an amyloid nucleation score of 4.48 ± 0.063.
For the substance QTRVCTNDKSSFTLQTGRW, the amyloid nucleation score worked out at 3.26 ± 0.14.
FNKVYMSSIVASKVVKMRLI yielded an amyloid nucleation score of -0.476 ± 0.75.
The value for VFAICGSTCVGEKGTWPGEG was -0.263 ± 1.4.
The value for HNSRWTRFRHLCSYITYGGC was -0.396 ± 0.58; that for QVRLKEFLYSLKCDVRYGST was “inactive”; that for CDVLELFKNTVGSFGGIVVS was 0.204 ± 0.79.
With YLYCSVSVYRFERFRRNHSR the figure was 0.051 ± 0.3.
The substance IDYRIDCVCFLCSVREEAYR registered an amyloid nucleation score of 7.278 ± 0.047.
Take RVSKFPKSFNVSFKADNKIH: the amyloid nucleation score turned out to be 4.02 ± 0.06.
SFYVWDDSYCFVFGCTSVKC registered an amyloid nucleation score of -0.291 ± 0.47.
With GTSSGLV the figure was 0.104 ± 1.1; with QVKDIGLPMHHACF, -1.36 ± 1.1.
The value for DNTIYDSMCFDAGNPDLCIH was 0.439 ± 0.23.
With FQTFSSICYMISFLIVG the figure was 0.928 ± 0.68.
Substance CELGTIDHSEKMLMVNWCAG returned an amyloid nucleation score of 0.967 ± 0.34.
With YISDSLYGFDEVGRDWLRVA the figure was -0.025 ± 0.56; with TLGTSGTSSV, -0.544 ± 0.49.
With GLGVIVVCPVCGSKGVCGKW the figure was -0.914 ± 1.4; with KCDARVVIFYLVRAGGVNGI, 1.41 ± 0.35.
With FCTHHWG the figure was -0.382 ± 0.6; with NFLFAYVLALRLFMYSVNMW, 4.5 ± 0.054.
LLSPFCVVLGSSTTGTMVNM had an amyloid nucleation score of 0.287 ± 0.62.
The value for ERVSRSVGPACAREETKGST was 0.354 ± 0.77.
With LLQGCNEVPVRKSKVVSSVR the figure was 0.441 ± 0.24.
The value for DVREITCLSHKRTRHQVHPV was 0.07 ± 1.2; that for IRCRQQARTMYNKMEKMGRG was -0.433 ± 0.3.
SFKYWNIRHKYFRTSLT yielded an amyloid nucleation score of -0.152 ± 0.4.
The value for YVKISVLGSKIYNIS was 5.38 ± 0.093; that for LFGLNWYNNGGRKSGCSDWA was -0.503 ± 0.98.
The value for CKVDRFIRCGVGYLSG was 0.039 ± 0.28.
On to VKFCCFGLLCELYSGHSGRM, for which the amyloid nucleation score came to 1.33 ± 0.15.
With QKLVDLTIRWGYRPLGRCWW the figure was 0.622 ± 0.97; with LQDFGKHPTLRCTVYRLHRP, -1.02 ± 0.83; with CQEKRSFPVNMNRDIPCLSS, 0.193 ± 1.5.
LDDLPTILGVSEHSRSFVKV came in with an amyloid nucleation score of -0.324 ± 0.61.
